Experimental data taken from patent publication US7238857, “Ethylene-responsive transcription coactivators in plants” (Japan and Science and Technology Agency).
Numbering of substitutions follows the chain as printed.

B1: mERE (mutant GCC box) (dsDNA)
DNA 1: GATCTCATAAGATCCTCCACTAAAATAAGACCGATCAAATAAGATCCTCCATG
DNA 2: GATCCATGGAGGATCTTATTTGATCGGTCTTATTTTAGTGGAGGATCTTATGA
B2: ERE (2x GCC box) (dsDNA)
DNA 1: B1 DNA 1 with T13G, T16G, T45G, T48G
DNA 2: B1 DNA 2 with A10C, A13C, A42C, A45C

How the values were obtained:
[1] = target: T1, ERF2 (Nicotiana tabacum, UniProt Q40479 Q40479:1-233); test: competition; 10 ng unlabeled mERE did not inhibit ERF2-ERE complex; conditions: tags: His tag (pET15b, Novagen); GATC 5' overhangs
T1 sequence (Q40479 whole entry, the tested form may be a part, one chain of several): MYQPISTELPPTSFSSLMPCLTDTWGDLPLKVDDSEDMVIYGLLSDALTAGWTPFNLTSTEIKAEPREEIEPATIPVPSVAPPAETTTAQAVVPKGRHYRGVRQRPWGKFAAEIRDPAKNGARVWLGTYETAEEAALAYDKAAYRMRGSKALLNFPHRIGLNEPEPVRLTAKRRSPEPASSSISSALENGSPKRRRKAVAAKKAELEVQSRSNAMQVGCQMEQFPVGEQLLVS
Text: The binding activity of ERF2 to ERE was investigated using gel-shift assays. The DNA fragment containing a 53 bp wild-type ethylene-responsive element (ERE) was used as a DNA probe after labeled with a radioactive tracer using (γ^-32P)ATP and T4-polynucleotide kinase (Takara Bio INC., Kyoto, Japan). Multi-copied and linked ERE (SEQ ID NO: 3 and 4) or mERE (SEQ ID NO: 5 and 6) fragments (FIG. 1) were used as wild-type and mutant-type competitors, respectively. mERE (mutant-type) was similar to ERE (wild-type), except that the DNA nucleotide sequence in the GCC box contains base substitutions. The mixture of 1 ng of radio-labeled DNA probe (1,000 to 10,000 cpm) and 10 ng of recombinant ERF without or with 10 ng of a competitor DNA in 10 µl of the binding buffer shown in Table 1 was incubated for 45 minutes at 25° C.
The samples after binding reaction were subjected to 4% polyacrylamide gel electrophoresis (acrylamide:bisacrylamide=39:1, 1 mm in thickness, 13 cm long) containing 0.25×TB buffer (22.5 mM Tris-borate, pH 8.0) at 25° C. for 3 hrs at 100 V. The gel was dried and exposed to Fuji Imaging Plate® (Fuji Photo Film Co. Ltd., Kanagawa, JAPAN; a radiosensitive layer of phosphor crystals on a polyester backing plate). The electrophoresis mobility pattern was visualized using Bio-Image Analyzer (Fuji Photo Film Co. Ltd., Kanagawa, JAPAN). […]

[2] = target: ERF1 (Nicotiana tabacum, UniProt Q40476 Q40476:1-236); test: in vitro transcription activation of pERE in HeLa nuclear extract; conditions: tags: His tag (pET15b, Novagen); label: 32P 5' end; GATC 5' overhangs
Sequence of ERF1 (Q40476 whole entry, one chain of several): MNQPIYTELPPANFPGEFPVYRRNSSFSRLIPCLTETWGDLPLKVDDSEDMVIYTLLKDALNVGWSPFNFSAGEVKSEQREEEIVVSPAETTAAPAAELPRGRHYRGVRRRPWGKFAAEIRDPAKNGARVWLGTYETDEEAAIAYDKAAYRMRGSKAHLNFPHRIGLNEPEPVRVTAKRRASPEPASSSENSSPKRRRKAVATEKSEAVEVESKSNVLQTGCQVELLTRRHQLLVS
Experimental: (§1) Moreover, the in vitro transcription reaction was assayed in the following way. The HeLa nuclear extracts used for the in vitro transcription were prepared as reported previously (Meth. Enzymol. 101:582–598(1983)).
(§2) The transcription reaction mixture was incubated for 60 min at 30° C. and 75 µl of the reaction stopping solution (Table 2) was added to stop the reaction. Then, 100 µl of PCIAA (50% phenol, 48% chloroform, 2% isoamilalcohol) was added to the reaction mixture to recover the aqueous phase. After that, 100 µl of CIAA (96% chloroform, 4% isoamilalcohol) was added to the aqueous phase and the aqueous phase was recovered. Then, 10 µl of 3 M sodium acetate and 300 µl of ethyl alcohol were added to the aqueous phase to precipitate nucleic acid. The nucleic acid was dried and was dissolved in 10 µl of urea solution (5M urea, 1 mM EDTA, 0.1% bromophenol blue). The nucleic acid sample was subjected to electrophoresis using 6% polyacrylamide gel (acrylamide:bisacrylamide=19:1, 1 mm of thickness, 12.5 cm long) containing 89 mM Tris-borate (pH 8.3), 2 mM EDTA and 8 M urea at 300 V. When bromophenol blue in the sample had migrated to the lowest edge of the gel, the gel was removed and was soaked in 1 L of water containing 5% methanol and 5% acetic acid and then in 1 L of water containing 5% methanol, each for 20 min. Then, the gel was attached to a filter paper, dried and exposed to Fuji Imaging Plate overnight. RNA was visualized using Bio Image Analyzer.
(§3) As in the case of reference example 2, the inventors examined the activity of transcriptional activation of other ERFs. […] The activity of transcriptional activation of each ERF was as follows; amplification by ERF3, 3 fold; that by ERF4, 3.5 fold; that by ERF1, 4 fold; that by ERF2, 5 fold.

[3] = target: ERF4 (Nicotiana tabacum, UniProt Q40478 Q40478:1-291); test: as above; conditions: tags: His tag (pET15b, Novagen); label: 32P 5' end; GATC 5' overhangs
Sequence of ERF4 (Q40478 whole entry, one chain of several): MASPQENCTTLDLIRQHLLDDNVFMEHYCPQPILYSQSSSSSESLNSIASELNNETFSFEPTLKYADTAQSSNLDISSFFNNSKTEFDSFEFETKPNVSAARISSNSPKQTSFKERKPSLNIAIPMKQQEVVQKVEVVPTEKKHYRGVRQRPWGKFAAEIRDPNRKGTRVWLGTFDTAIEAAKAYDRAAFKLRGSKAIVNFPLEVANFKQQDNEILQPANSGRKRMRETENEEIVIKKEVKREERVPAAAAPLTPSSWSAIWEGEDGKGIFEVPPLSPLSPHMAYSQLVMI
Experimental: as §1, §2, §3

[4] = target: ERF3 (Nicotiana tabacum, UniProt Q40477 Q40477:1-225); test: as above; conditions: tags: His tag (pET15b, Novagen); label: 32P 5' end; GATC 5' overhangs
Sequence of ERF3 (Q40477 whole entry, one chain of several): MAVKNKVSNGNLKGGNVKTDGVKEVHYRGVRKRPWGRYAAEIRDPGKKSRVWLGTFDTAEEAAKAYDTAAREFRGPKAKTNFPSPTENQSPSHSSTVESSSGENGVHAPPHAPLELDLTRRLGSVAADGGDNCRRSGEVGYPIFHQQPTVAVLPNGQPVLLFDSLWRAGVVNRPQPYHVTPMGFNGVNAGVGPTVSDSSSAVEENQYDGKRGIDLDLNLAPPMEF
Experimental: as §1, §2, §3

[5] = target: T1, ERF2; test: in vitro transcription activation of pERE in HeLa nuclear extract with tTBP; conditions: tags: His tag (pET15b, Novagen); label: 32P 5' end; GATC 5' overhangs
Experimental: as §1
as §2, with “Then, the gel was attached to a filter paper, dried and exposed to Fuji Imaging Plate overnight. RNA was visualized using Bio Image Analyzer.” left out

Binder	binding result [1]	activity [2] [fold]	activity [3] [fold]	activity [4] [fold]	activity [5] [fold]
B1	no binding				
B2		4	3.5	3	5
